# Experiments:
# [1] = target: FGF receptor/BKL complex on HEK293 cells overexpressing human beta-klotho (BKL) (human) (UniProt Q86Z14); test: cell-based or functional assay
# [2] = target: FGFR1c receptor/BKL complex on differentiated mouse 3T3-L1 adipocytes (mouse) (UniProt P16092); test: cell-based or functional assay
# Sequence of FGFR1c receptor/BKL complex on differentiated mouse 3T3-L1 adipocytes (mouse) (P16092 22-822, chain 1 of 2): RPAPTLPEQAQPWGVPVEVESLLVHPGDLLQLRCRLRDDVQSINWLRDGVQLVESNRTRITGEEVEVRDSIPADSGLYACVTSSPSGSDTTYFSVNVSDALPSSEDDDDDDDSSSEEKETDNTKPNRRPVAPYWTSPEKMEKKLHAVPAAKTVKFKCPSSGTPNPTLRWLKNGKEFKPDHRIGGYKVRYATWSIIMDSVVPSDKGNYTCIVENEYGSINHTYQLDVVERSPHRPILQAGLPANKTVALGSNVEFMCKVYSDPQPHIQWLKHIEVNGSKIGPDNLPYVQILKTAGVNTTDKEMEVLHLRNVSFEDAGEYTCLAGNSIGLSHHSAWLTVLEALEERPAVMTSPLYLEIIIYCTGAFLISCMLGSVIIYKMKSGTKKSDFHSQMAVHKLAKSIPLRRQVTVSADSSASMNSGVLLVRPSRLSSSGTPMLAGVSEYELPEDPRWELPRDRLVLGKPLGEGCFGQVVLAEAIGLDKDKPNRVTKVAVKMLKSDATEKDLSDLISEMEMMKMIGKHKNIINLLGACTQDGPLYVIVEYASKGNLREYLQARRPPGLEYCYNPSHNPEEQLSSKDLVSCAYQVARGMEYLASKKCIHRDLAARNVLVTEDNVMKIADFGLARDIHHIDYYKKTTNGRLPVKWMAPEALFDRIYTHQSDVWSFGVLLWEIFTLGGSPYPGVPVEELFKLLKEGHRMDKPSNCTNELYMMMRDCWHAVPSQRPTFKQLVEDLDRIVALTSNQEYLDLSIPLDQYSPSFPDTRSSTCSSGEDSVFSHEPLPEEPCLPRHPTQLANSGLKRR
# Sequence of FGFR1c receptor/BKL complex on differentiated mouse 3T3-L1 adipocytes (mouse) (Q99N32 whole entry, chain 2 of 2, further chain): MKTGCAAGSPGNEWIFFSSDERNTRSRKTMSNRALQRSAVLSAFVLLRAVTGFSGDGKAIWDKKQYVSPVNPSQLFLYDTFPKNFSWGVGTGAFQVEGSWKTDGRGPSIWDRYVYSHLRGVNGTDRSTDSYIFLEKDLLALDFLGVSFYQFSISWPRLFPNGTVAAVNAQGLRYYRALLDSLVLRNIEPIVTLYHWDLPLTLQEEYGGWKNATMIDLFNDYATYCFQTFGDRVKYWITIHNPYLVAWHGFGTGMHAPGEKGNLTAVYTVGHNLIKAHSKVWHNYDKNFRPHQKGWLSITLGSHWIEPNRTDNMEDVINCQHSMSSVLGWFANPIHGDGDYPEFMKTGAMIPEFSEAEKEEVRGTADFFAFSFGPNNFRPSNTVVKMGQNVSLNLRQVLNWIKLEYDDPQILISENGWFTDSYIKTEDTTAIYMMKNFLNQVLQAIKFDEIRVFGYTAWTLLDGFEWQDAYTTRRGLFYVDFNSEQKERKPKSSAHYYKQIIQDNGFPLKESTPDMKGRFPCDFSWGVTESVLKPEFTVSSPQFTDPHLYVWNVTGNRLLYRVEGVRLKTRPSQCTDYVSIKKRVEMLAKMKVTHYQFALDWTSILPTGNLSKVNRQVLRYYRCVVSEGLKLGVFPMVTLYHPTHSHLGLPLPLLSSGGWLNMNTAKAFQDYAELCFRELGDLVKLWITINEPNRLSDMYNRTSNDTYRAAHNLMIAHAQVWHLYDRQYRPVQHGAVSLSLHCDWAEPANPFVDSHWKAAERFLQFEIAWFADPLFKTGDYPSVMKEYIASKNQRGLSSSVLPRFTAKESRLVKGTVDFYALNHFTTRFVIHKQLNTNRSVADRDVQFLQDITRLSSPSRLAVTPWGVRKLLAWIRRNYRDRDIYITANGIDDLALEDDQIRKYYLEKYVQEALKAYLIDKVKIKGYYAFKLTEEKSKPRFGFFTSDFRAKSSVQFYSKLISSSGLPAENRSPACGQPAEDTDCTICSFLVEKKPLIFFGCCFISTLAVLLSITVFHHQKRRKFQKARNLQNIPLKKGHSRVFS
# Sequence of S{Beta-181}-2-aminoethylsulfanyl-Ala[Gln121,Leu168,Cys181]FGF21 (Q9NSA1 other isoform, or with tags, fused parts or gaps limits assumed): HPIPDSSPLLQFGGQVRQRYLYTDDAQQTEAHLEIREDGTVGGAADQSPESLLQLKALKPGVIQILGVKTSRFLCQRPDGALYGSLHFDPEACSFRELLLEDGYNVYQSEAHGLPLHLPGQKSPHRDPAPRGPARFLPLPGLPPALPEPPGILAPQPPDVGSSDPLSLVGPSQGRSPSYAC
# Sequence of FGF receptor/BKL complex on HEK293 cells overexpressing human beta-klotho (BKL) (human) (Q86Z14 whole entry, one chain of several): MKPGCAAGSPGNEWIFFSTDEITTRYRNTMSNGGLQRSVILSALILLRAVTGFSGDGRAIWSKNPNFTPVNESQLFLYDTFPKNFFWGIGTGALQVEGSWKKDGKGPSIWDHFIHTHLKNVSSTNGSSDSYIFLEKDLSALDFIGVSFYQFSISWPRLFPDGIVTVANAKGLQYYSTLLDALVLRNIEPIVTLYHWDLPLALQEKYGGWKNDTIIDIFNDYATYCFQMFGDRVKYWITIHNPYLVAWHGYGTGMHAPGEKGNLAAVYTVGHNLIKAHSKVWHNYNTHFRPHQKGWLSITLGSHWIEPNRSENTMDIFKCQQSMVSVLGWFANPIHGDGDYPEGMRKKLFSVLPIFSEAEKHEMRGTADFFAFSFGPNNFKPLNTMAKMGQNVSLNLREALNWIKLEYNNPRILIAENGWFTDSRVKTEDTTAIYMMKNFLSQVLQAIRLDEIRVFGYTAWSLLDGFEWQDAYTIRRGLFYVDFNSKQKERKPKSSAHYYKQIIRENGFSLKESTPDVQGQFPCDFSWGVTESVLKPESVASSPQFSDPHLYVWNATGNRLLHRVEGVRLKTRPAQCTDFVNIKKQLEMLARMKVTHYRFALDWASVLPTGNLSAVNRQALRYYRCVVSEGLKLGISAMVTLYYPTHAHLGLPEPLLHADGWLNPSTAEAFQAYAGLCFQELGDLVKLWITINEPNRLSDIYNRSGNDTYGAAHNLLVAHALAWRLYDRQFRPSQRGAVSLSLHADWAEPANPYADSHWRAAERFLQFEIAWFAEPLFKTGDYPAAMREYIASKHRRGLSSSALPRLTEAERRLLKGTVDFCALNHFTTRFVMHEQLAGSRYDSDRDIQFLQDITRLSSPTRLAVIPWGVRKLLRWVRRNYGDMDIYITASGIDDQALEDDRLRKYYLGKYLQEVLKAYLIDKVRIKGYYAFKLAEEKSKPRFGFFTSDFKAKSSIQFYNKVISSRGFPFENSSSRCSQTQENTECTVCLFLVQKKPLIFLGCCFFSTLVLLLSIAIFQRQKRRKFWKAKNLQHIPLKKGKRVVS
Substance,"EC50 (0.1% HSA) (nM), pERK, HEK293/BKL cells [1]","EC50 (nM), pERK, HEK293/BKL cells [1]","Glucose uptake EC50 (nM), 3T3-L1 adipocytes [2]","Glucose uptake Emax (%), 3T3-L1 adipocytes [2]"
"S{Beta-181}-[2-[2-[[2-[2-[2-[[2-[2-[2-[[(4S)-4-carboxy-4-(13-carboxytridecanoyl-amino)butanoyl]amino]ethoxy]ethoxy]acetyl]amino]ethoxy]ethoxy]acetyl]amino]-ethylamino]-2-oxoethyl]-Ala[Gln121,Leu168,Cys181]FGF21 (from UniProt Q9NSA1 29-208) (ligand)",41 nM,58 nM,7.2 nM,55%
"S{Beta-181}-[2-[2-[[2-[2-[2-[[2-[2-[2-[[(4S)-4-carboxy-4-(15-carboxypentadecanoyl-amino)butanoyl]amino]ethoxy]ethoxy]acetyl]amino]ethoxy]ethoxy]acetyl]amino]-ethylamino]-2-oxoethyl]-Ala[Gln121,Leu168,Cys181]FGF21 (from UniProt Q9NSA1 29-208) (ligand)",72 nM,55 nM,31 nM,61%
"S{Beta-181}-[2-[2-[[2-[2-[2-[[2-[2-[2-[[(4S)-4-carboxy-4-(17-carboxyheptadecanoyl-amino)butanoyl]amino]ethoxy]ethoxy]acetyl]amino]ethoxy]ethoxy]acetyl]amino]-ethylamino]-2-oxoethyl]-Ala[Gln121,Leu168,Cys181]FGF21 (from UniProt Q9NSA1 29-208) (ligand)",170 nM,42 nM,56 nM,73%
"{Beta-178}-[2-[2-[[2-[2-[2-[[2-[2-[2-[[(4S)-4-carboxy-4-(15-carboxypentadecanoyl-amino)butanoyl]amino]ethoxy]ethoxy]acetyl]amino]ethoxy]ethoxy]acetyl]amino]-ethylamino]-2-oxoethyl]-Ala[Gln121,Leu168,Cys178]FGF21 (from UniProt Q9NSA1 29-209) (ligand)",137 nM,167 nM,186 nM,59%

# More lines, now with the values ahead:
"EC50 (0.1% HSA) (nM), pERK, HEK293/BKL cells [1]","EC50 (nM), pERK, HEK293/BKL cells [1]","Glucose uptake EC50 (nM), 3T3-L1 adipocytes [2]","Glucose uptake Emax (%), 3T3-L1 adipocytes [2]",Substance
133 nM,5 nM,24 nM,53%,"S{Beta-180}-[2-[2-[[2-[2-[2-[[2-[2-[2-[[(4S)-4-carboxy-4-(19-carboxynonadecanoyl-amino)butanoyl]amino]ethoxy]ethoxy]acetyl]amino]ethoxy]ethoxy]acetyl]amino]-ethylamino]-2-oxoethyl]-Ala[Gln121,Leu168,Cys180]FGF21 (from UniProt Q9NSA1 29-209) (ligand)"
–,27 nM,5 nM,74%,"S{Beta-181}-2-aminoethylsulfanyl-Ala[Gln121,Leu168,Cys181]FGF21 (from UniProt Q9NSA1 29-208) (ligand)"
434 nM,58 nM,410 nM,57%,"S{Beta-181}-[2-[2-[[2-[2-[2-[[2-[2-[2-[[(4S)-4-carboxy-4-(19-carboxynonadecanoyl-amino)butanoyl]amino]ethoxy]ethoxy]acetyl]amino]ethoxy]ethoxy]acetyl]amino]-ethylamino]-2-oxoethyl]-Ala[Gln121,Leu168,Cys181]FGF21 (from UniProt Q9NSA1 29-208) (ligand)"

# Source: patent US20180140673A1
